System: NC(=O)c1ccc[n+]([C@@H]2O[C@H](COP(=O)([O-])OP(=O)(O)OC[C@H]3O[C@@H](n4cnc5c(N)ncnc54)[C@H](O)[C@@H]3O)[C@@H](O)[C@H]2O)c1
Experiment: Nucleotide cofactor specificity of AmEPV ligase in nick ligation
Assay type: biochemical, Amsacta moorei entomopoxvirus
Conditions: other: from double-reciprocal plot, sub-saturating enzyme; pH 7.5; 22.0 °C
Method: Reaction mixtures (20 μl) containing 50 mM Tris-HCl (pH 7.5), 10 mM (NH4)2SO4, 5 mM DTT, 5 mM MgCl2, 1 pmol of ^32P-labeled nicked DNA, 32 ng of AmEPV ligase, and 50 μM of the indicated nucleotide were incubated for 30 min at 22° C. A control reaction contained no added nucleotide cofactor (none). The reaction products were resolved by polyacrylamide gel electrophoresis. An autoradiogram of the gel is shown.
A low level of nick ligation could be detected in the absence of added nucleotide (FIG. 6). Cofactor-independent ligation was attributed to pre-adenylated ligase in the enzyme preparation. […] Inclusion of NAD^+ in the reaction mixture stimulated nick ligation such that ˜90% of the input substrate molecules were sealed (FIG. 6). […] Indeed, none of the standard rNTPs or dNTPs were able to satisfy the requirement of AmEPV ligase for a high energy cofactor (FIG. 6). […] A Km of 9 μM NAD^+ was calculated from a double-reciprocal plot of the data.

AmEPV ligase (Betaentomopoxvirus amoorei)
Km: 9 µM

From patent US6787341B2, “Pharmacological targeting of bacterial DNA ligase for treatment and prevention of bacterial infections” (priority 2001, dated 2004)
